Substitutions are numbered along the chain they refer to.
How the values were obtained:
Settings in all cases: protein: recombinant; tags: His6-thioredoxin removed by TEV; blunt
CadC1-107 (DBD) [1] = molecular target: T1, CadC1-107 (DBD) (Escherichia coli, UniProt P23890 1-107); assay: NMR titration; 1:1 model; EMSA/NMR/ITC: 20 mM BisTris, 150 mM NaCl, pH 6.5, RT (NMR 10% D2O, 298 K; imino spectra 283 K); SPR: 10 mM HEPES pH 7.4, 150 mM NaCl, 3 mM EDTA, 0.05% P20, 25 C
T1 sequence: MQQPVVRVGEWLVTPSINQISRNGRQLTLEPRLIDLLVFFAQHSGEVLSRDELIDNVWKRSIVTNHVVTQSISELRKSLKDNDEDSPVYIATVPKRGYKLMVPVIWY

CadC1-159 WT [2] = molecular target: T2, CadC1-159 WT (Escherichia coli, UniProt P23890 1-159); assay: SPR; steady state; construct called CadC DBD in legend, CadC1-159 in Methods; EMSA/NMR/ITC: 20 mM BisTris, 150 mM NaCl, pH 6.5, RT (NMR 10% D2O, 298 K; imino spectra 283 K); SPR: 10 mM HEPES pH 7.4, 150 mM NaCl, 3 mM EDTA, 0.05% P20, 25 C
T2 sequence: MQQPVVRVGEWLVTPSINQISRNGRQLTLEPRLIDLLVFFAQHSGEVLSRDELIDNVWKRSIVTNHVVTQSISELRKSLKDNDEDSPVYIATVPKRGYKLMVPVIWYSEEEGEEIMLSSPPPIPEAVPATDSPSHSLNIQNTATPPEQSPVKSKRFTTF

CadC1-107 (DBD) [3] = molecular target: T1, CadC1-107 (DBD); assay: EMSA; identical to 41-mer; value only in figure; EMSA/NMR/ITC: 20 mM BisTris, 150 mM NaCl, pH 6.5, RT (NMR 10% D2O, 298 K; imino spectra 283 K); SPR: 10 mM HEPES pH 7.4, 150 mM NaCl, 3 mM EDTA, 0.05% P20, 25 C
CadC1-107 (DBD) [4] = molecular target: T1, CadC1-107 (DBD); assay: NMR; smaller imino CSPs, line broadening; EMSA/NMR/ITC: 20 mM BisTris, 150 mM NaCl, pH 6.5, RT (NMR 10% D2O, 298 K; imino spectra 283 K); SPR: 10 mM HEPES pH 7.4, 150 mM NaCl, 3 mM EDTA, 0.05% P20, 25 C
CadC1-107 (DBD) [5] = molecular target: T1, CadC1-107 (DBD); assay: NMR; EMSA/NMR/ITC: 20 mM BisTris, 150 mM NaCl, pH 6.5, RT (NMR 10% D2O, 298 K; imino spectra 283 K); SPR: 10 mM HEPES pH 7.4, 150 mM NaCl, 3 mM EDTA, 0.05% P20, 25 C
CadC1-159 E30R = molecular target: T3, CadC1-159 E30R (Escherichia coli, UniProt P23890 1-159, E30R); assay: SPR; almost 30-fold; EMSA/NMR/ITC: 20 mM BisTris, 150 mM NaCl, pH 6.5, RT (NMR 10% D2O, 298 K; imino spectra 283 K); SPR: 10 mM HEPES pH 7.4, 150 mM NaCl, 3 mM EDTA, 0.05% P20, 25 C
T3 sequence: T2 sequence with E30R

CadC1-159 WT [6] = molecular target: T2, CadC1-159 WT; assay: SPR; steady state; EMSA/NMR/ITC: 20 mM BisTris, 150 mM NaCl, pH 6.5, RT (NMR 10% D2O, 298 K; imino spectra 283 K); SPR: 10 mM HEPES pH 7.4, 150 mM NaCl, 3 mM EDTA, 0.05% P20, 25 C

B1: Cad1 17-mer (dsDNA)
DNA 1: TAAACATTAAATGTTTA
DNA 2: TAAACATTTAATGTTTA
Kd (CadC1-107 (DBD) [1]): 67 ± 16 µM

B2: Cad1 17-mer, biotinylated (SPR) (dsDNA)
DNA 1: TAAACATTAAATGTTTA
DNA 2: TAAACATTTAATGTTTA
Kd (CadC1-159 WT [2]): 23 µM

B3: Cad1AB 26-mer (dsDNA)
DNA 1: GTAAACATTAAATGTTTATCTTTTCA
DNA 2: TGAAAAGATAAACATTTAATGTTTAC
binding result (CadC1-107 (DBD) [3]): binds

B4: Cad1C 13-mer (dsDNA)
DNA 1: TGATATCAACTTG
DNA 2: CAAGTTGATATCA
binding result (CadC1-107 (DBD) [4]): binds

B5: Cad1B 13-mer (dsDNA)
DNA 1: GTTTATCTTTTCA
DNA 2: TGAAAAGATAAAC
binding result (CadC1-107 (DBD) [5]): binds

B6: Cad1A 14-mer (dsDNA)
DNA 1: GTAAACATTAAATG
DNA 2: CATTTAATGTTTAC
binding result (CadC1-107 (DBD) [5]): binds

B7: Cad1 41-mer, biotinylated (SPR) (dsDNA)
DNA 1: TTGTAAACATTAAATGTTTATCTTTTCATGATATCAACTTG
DNA 2: CAAGTTGATATCATGAAAAGATAAACATTTAATGTTTACAA
binding signal (CadC1-159 E30R): ~30 fold increased affinity vs WT | Kd (CadC1-159 WT [6]): 0.38 µM
